In article PMC5701296, “α-Synuclein-Dependent Calcium Entry Underlies Differential Sensitivity of Cultured SN and VTA Dopaminergic Neurons to a Parkinsonian Neurotoxin” (eNeuro, 2017) one finds Km data, which are given here for one protein.

Substrate in the data set: CN(C)c1ccc(-c2cc[n+](C)cc2)cc1
Nature of the data set: concentration-dependent fluorescent uptake, Lineweaver-Burk; blocked by nomifensine. Type of data set: cell-based, Mus musculus.

B1: DA uptake transporter (DAT) (Mus musculus) (protein)
chain: MSKSKCSVGPMSSVVAPAKEPNAVGPREVELILVKEQNGVQLTNSTLINPPQTPVEVQERETWSKKIDFLLSVIGFAVDLANVWRFPYLCYKNGGGAFLVPYLLFMVIAGMPLFYMELALGQFNREGAAGVWKICPVLKGVGFTVILISFYVGFFYNVIIAWALHYFFSSFTMDLPWIHCNNTWNSPNCSDAHSSNSSDGLGLNDTFGTTPAAEYFERGVLHLHQSRGIDDLGPPRWQLTACLVLVIVLLYFSLWKGVKTSGKVVWITATMPYVVLTALLLRGVTLPGAMDGIRAYLSVDFYRLCEASVWIDAATQVCFSLGVGFGVLIAFSSYNKFTNNCYRDAIITTSINSLTSFSSGFVVFSFLGYMAQKHNVPIRDVATDGPGLIFIIYPEAIATLPLSSAWAAVFFLMLLTLGIDSAMGGMESVITGLVDEFQLLHRHRELFTLGIVLATFLLSLFCVTNGGIYVFTLLDHFAAGTSILFGVLIEAIGVAWFYGVQQFSDDIKQMTGQRPNLYWRLCWKLVSPCFLLYVVVVSIVTFRPPHYGAYIFPDWANALGWIIATSSMAMVPIYATYKFCSLPGSFREKLAYAITPEKDRQLVDRGEVRQFTLRHWLLV
notes: native transporter in cultured primary mouse SN and VTA dopaminergic neurons
Consider B1, for which the Michaelis-Menten constant (Km) was 16.9 ± 5.5 µM.
